Reference: PMC8406304, “Inhibiting Type VI Secretion System Activity with a Biomimetic Peptide Designed To Target the Baseplate Wedge Complex” (mBio, 2021)

How the values were obtained:
[1] = biological target: TssF-Strep (EAEC) (enteroaggregative Escherichia coli (EAEC) 17-2); experiment: pull-down; soluble extracts of E. coli BL21(DE3) producing the TssKFGE wedge complex with TssG wild type or foot variants; TssF-Strep used to pull down TssG by affinity purification; level of copurified TssG quantified
[2] = biological target: Strep-tagged TssK (EAEC) (enteroaggregative Escherichia coli (EAEC) 17-2); experiment: BLI; as a7, but 1 mM mutated BCP added to the bound TssK before 47 μM TssFGE lysate
[3] = biological target: Strep-tagged TssK (EAEC) (enteroaggregative Escherichia coli (EAEC) 17-2); experiment: BLI; as a7, but 1 mM wild-type BCP added to the bound TssK before 47 μM TssFGE lysate
[4] = biological target: Strep-tagged TssK (EAEC) (enteroaggregative Escherichia coli (EAEC) 17-2); experiment: BLI; as a7, but 1 mM randomized BCP added to the bound TssK before 47 μM TssFGE lysate
[5] = biological target: Strep-tagged TssK (EAEC) (enteroaggregative Escherichia coli (EAEC) 17-2); experiment: BLI; biotinylated TssK loaded at 1.2 μM on streptavidin (SAX) biosensors, blocked with control lysate; 47 μM TssFGE lysate in kinetic buffer (PBS pH 7.3, 0.02% Tween 20, 0.1% BSA); no peptide
[6] = tested on: TssK-TssFGE (TssKFGE wedge complex); experiment: Biolayer interferometry (BLI), TssFGE binding to biotinylated TssK; assay type: biochemical, enteroaggregative Escherichia coli (EAEC); settings: BLI, 47 μM TssFGE lysate, TssK preincubated with 1 mM peptide, kinetic buffer pH 7.3; mean ± SD of three independent assays
Method: Streptavidin-tagged TssK was purified as described above. The TssK trimer was further polished by size exclusion chromatography using a Superose 6 10/300 GL (GE Healthcare) in 50 mM HEPES (pH 7.0), 150 mM NaCl at 0.25 ml/min. For biolayer interferometry (BLI) experiments, we used high-precision Strep (SAX) biosensors from Forté Bio (number 18-5117) on the BLItz machine (Forté Bio). The trimeric ligand TssK was biotinylated using equimolar N-hydroxysuccinimide (NHS)–polyethylene glycol 4 (PEG4)–biotin (Pierce EZ-Link; 21330) in 50 mM HEPES (pH 7.0), NaCl 150 mM for 1 h at room temperature before buffer exchange in CentriPure P2 (Generon; IRL) columns against 50 mM HEPES (pH 7.0), NaCl 150 mM to remove the excess biotin. BL21(DE3) cells were used to express the interacting analytes TssG-TssF-TssE. In addition, cells containing an empty plasmid were used as a control. Cells were broken as described above, and the clarified supernatants after centrifugation for 30 min at 20,000 × g contained the control and TssFGE lysate. Streptavidin biosensors were hydrated for 10 min in HEPES buffer before binding of the biotinylated TssK. Biotinylated TssK was loaded at 1.2 μM onto the SAX biosensors for 120 s, and then the excess TssK was dissociated in HEPES buffer for 120 s. For the remaining kinetic assays, we used kinetic buffer (PBS [pH 7.3] plus 0.02% Tween 20, 0.1% bovine serum albumin [BSA], 0.05% sodium azide) (Forté Bio number 18-5032) with orbital shaking at 2,200 rpm. Kinetic buffer (KB) was used to dilute the lysates and the peptide to decrease nonspecific signals. The unbound Strep sites were blocked with 2 μM control lysate for 120 s and washed with KB for 120 s. The kinetic assays were performed using three steps with different times: baseline, 30 s; association, 120 s; and dissociation, 120 s. All the following assays were performed in triplicate. […] In the first assay, we added 47 μM lysate expressing the analytes TssG, TssF, and TssE to the bound TssK. In the second assay, we added 1 mM wild-type (WT) BCP to the bound TssK before adding 47 μM TssF-TssG-TssE. In the third assay, to validate the specificity of the WT BCP we added 1 mM mutant BCP that lacks the binding residues to the bound TssK before adding 47 μM TssF-TssG-TssE. Last, to redemonstrate the specificity of the BCP-WT, we added 1 mM randomized BCP that contains the binding residues but out of order to the bound TssK before adding 47 μM TssF-TssG-TssE.

[7] = biological target: TssK-6×His (EAEC) (enteroaggregative Escherichia coli (EAEC) 17-2); experiment: native gel or EMSA; clarified BL21(DE3) lysates on a native 4 to 16% gel, immunoblot with anti-His antibodies
[8] = biological target: Strep-tagged TssK (EAEC) (enteroaggregative Escherichia coli (EAEC) 17-2); experiment: ITC; 25 μM TssK in the cell, 1 mM peptide in the syringe; 50 mM HEPES pH 7.0, 150 mM NaCl, 25°C; One Set of Sites model

## Flag-tagged TssG (EAEC) (natural protein)
[1]
  amount of TssG copurified using TssF-based pulldown: 74.8%

## TssF-TssG-TssE (EAEC) (complex)
[2]
  maximum binding average response at 150 s, TssK preincubated with 1 mM mutated BCP: 0.169 nm
[3]
  maximum binding average response at 150 s, TssK preincubated with 1 mM wild-type BCP: 0.121 nm
[4]
  maximum binding average response at 150 s, TssK preincubated with 1 mM randomized BCP: 0.16 nm
[5]
  maximum binding average response at 150 s association: 0.189 nm

## SRPVAG-SRPVAG-SRPVAG (head to tail) [mutated BCP]
[6]
  maximum binding average response of TssFGE to TssK at 150 s in presence of peptide: 0.169 ± 0.016 nm

## TssK-6×His (EAEC) (natural protein)
[7]
  stoichiometry N: 3

## Flag-tagged TssG with the foot 1 domain deleted (natural protein)
[1]
  amount of TssG copurified using TssF-based pulldown: 4.6%

## SVRMPG-SPMRVG-SMVRPG (head to tail) [randomized BCP, randomized control version (SVRMPG-SPMRVG-SMVRPG)]
[6]
  maximum binding average response of TssFGE to TssK at 150 s in presence of peptide: 0.160 ± 0.028 nm

## Flag-tagged TssG with the foot 2 domain deleted (natural protein)
[1]
  amount of TssG copurified using TssF-based pulldown: 1.1%

## SRPVMGSRPVMGSRPVMG (head-to-tail cyclization) [biomimetic cyclic peptide (BCP)]
[8]
  Kd: 60 µM
